Measured values reported in patent US20260049160A1 (Hoffmann-La Roche, published 2026).

How the values were obtained:
[1] = biological target: T1, biotinylated PD1-ECD-AviHis (human, UniProt Q15116 25-170, biotinylated (Avi tag)); test: ELISA, biotinylated PD1-ECD-AviHis on streptavidin plates
T1 construct: extracellular domain; also called huPD1; hu PD1; not shown: Avi and His tags

[2] = biological target: T2, biotinylated Tim3-ECD-AviHis (human, UniProt Q8TDQ0 22-202, biotinylated (Avi tag)); test: ELISA on biotinylated Tim3-ECD-AviHis
T2 construct: extracellular domain; also called huTIM3; hu Tim3; not shown: Avi and His tags

human PD1-ECD = biological target: T3, human PD1-ECD (human, UniProt Q15116 25-170); test: SPR (Biacore T200), antibody captured via anti-human Fc IgG, human PD1-ECD in solution, 1:1 Langmuir
T3 construct: extracellular domain; Analyte of the Biacore assay; also called hu PD1-ECD
Method: Different samples were injected for 15 seconds with a concentration of 10 nM and consecutively bound to the flow cells 2, 3 and 4. […] Finally the double referenced data was fitted to a 1:1 langmuir interaction model with the Biacore™ T200 Evaluation Software.

human Tim3-ECD = biological target: T4, human Tim3-ECD (human, UniProt Q8TDQ0 22-202); test: SPR (Biacore T200), antibody captured via anti-human Fab IgG, human Tim3-ECD in solution, 1:1 Langmuir
T4 construct: extracellular domain; Analyte of the Biacore assay; also called hu Tim3-ECD
Method: The sample and running buffer was HBS-EP+ (0.01 M HEPES, 0.15 M NaCl, 3 mM EDTA, 0.05% v/v Surfactant P20, pH 7.4). Flow cell temperature was set to 25° C. and sample compartment temperature to 12° C. The system was primed with running buffer.
Different samples were injected for 30 seconds with a concentration of 10 nM and bound consecutively to the flow cells 2, 3 and 4. […] Finally the double referenced data was fitted to a 1:1 langmuir interaction model with the Biacore™ T200 Evaluation Software.

[3] = biological target: T2, biotinylated Tim3-ECD-AviHis; test: ELISA, biotinylated Tim3-ECD-AviHis on streptavidin plates

B1: Chimeric PD1-0103 (antibody, V domains shown)
VH: EVILVESGGGLVKPGGSLKLSCAASGFSFSSYTMSWVRQTPEKRLDWVATISGGGRDIYYPDSVKGRFTISRDNAKNTLYLEMSSLMSEDTALYYCVLLTGRVYFALDSWGQGTSVTVSS
VL: KIVLTQSPASLPVSLGQRATISCRASESVDTSDNSFIHWYQQRPGQSPKLLIYRSSTLESGVPARFSGSGSRTDFTLTIDPVEADDVATYYCQQNYDVPWTFGGGTKLEIK
notes: Bivalent IgG; also called PD1 IgG (bivalent); copies: 2 + 2
[1]
  EC50: 0.12 nM
[2]
  binding result: no binding

B2: 2 + 2 PD1TIM3_0359: chimeric PD1-0103/Tim3-0018 (bispecific antibody, human IgG1, kappa, L234A L235A)
heavy: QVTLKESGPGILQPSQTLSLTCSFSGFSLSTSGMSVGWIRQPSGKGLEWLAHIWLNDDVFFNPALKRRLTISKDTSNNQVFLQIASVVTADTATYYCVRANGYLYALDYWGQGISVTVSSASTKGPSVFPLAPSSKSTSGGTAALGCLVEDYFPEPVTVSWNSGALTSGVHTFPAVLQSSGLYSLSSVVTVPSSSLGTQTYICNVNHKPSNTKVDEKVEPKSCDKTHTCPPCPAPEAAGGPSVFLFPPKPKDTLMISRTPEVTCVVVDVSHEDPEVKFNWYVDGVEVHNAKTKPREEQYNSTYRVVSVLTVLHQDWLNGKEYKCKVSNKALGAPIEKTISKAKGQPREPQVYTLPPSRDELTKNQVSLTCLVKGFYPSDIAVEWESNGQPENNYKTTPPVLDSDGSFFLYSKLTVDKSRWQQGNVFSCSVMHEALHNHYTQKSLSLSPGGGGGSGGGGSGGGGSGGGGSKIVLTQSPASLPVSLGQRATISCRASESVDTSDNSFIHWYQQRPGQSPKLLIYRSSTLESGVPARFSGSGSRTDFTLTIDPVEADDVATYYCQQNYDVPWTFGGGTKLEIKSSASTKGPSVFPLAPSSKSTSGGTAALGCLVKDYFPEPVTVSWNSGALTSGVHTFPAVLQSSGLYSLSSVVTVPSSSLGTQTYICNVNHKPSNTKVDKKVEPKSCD
light 1: QIVLTQSPAIMSASPGQKVTITCSASSSVNYTQWYQQKLGSSPKLWIYDAFKLAPGVPARFSGSGTGTSYSLTISSMEAEDAASYFCHQWSSYPWTFGGGTKLEIKRTVAAPSVFIFPPSDRKLKSGTASVVCLLNNFYPREAKVQWKVDNALQSGNSQESVTEQDSKDSTYSLSSTLTLSKADYEKHKVYACEVTHQGLSSPVTKSFNRGEC
light 2: EVILVESGGGLVKPGGSLKLSCAASGFSFSSYTMSWVRQTPEKRLDWVATISGGGRDIYYPDSVKGRFTISRDNAKNTLYLEMSSLMSEDTALYYCVLLTGRVYFALDSWGQGTSVTVSSASVAAPSVFIFPPSDEQLKSGTASVVCLLNNFYPREAKVQWKVDNALQSGNSQESVTEQDSKDSTYSLSSTLTLSKADYEKHKVYACEVTHQGLSSPVTKSFNRGEC
notes: Tetravalent 2+2 CrossMAb VH-VL with charged substitutions in the CH1/CL interfaces; also called PD1TIM3-0359 (2 + 2)
Human PD1-ECD
  Kd: 1.9 nM
[1]
  EC50: 0.09 nM
Human Tim3-ECD
  Kd: 0.3 nM
[3]
  EC50: 0.11 nM
